Assay results: patent publication US20020143164A1, “Ras activator nucleic acid molecules, polypeptides and methods of use” (priority 1999, published 2002)

System: Ras
Experiment: In vitro GEF assay (32P-α-GTP binding to Ras)
Format: biochemical
Experimental: Full length (GRF4) or CDC25-deleted (ΔCDC25) GRF4, or GRF2, each Flag-tagged, were immunoprecipitated from transfected Hek-293T cells using anti Flag antibodies. Equal amounts of immunoprecipitates were washed with GEF lysis buffer, equilibrated with GEF assay buffer and incubated with 32P-α-GTP (diluted in cold GTP) plus 100 ng of Ras for 30 min. Bound and unbound radiolabelled GTP were then separated by filtration, and the amount of bound GTP determined by scintillation counting, as detailed in the Method section. Fold Ras activation was compared to the activation of Ras in the absence of GRFs (which was set to 1).
GRF4 has a RasGRF(GEF) activity/function. To show its GEF activity, we performed in-vitro GEF assays. Briefly, GST-Ras was added alone (tubes 1 and 2) or along with GST-CDC25, or immunoprecipitated full-length of GRF4 (tubes 3 and 4). All tubes contained assay mixture including cold GTP and P32 alpha GTP. The exchange reactions were stopped at the indicated times. The stopped reaction mixtures were passed through nitrocellulose filters which were then washed with stop buffer to separate bound and unbound nucleotides. Filters were dried and then quantified by scintillation counting to determine bound CPM. The labeled nucleotides trapped on the washed filters were assumed to be Ras-associated. The difference in bound CPM over 30 minute period was determined for reactions where GST-Ras was added alone (it is the difference in bound CPM between tubes 1 and 2) and where GST-Ras was added with a GEF (it is the difference in bound CPM between tubes 3 and 4).

B1: isolated CDC25 domain of GRF4: Isolated CDC25 catalytic domain of GRF4 (protein)
chain: SLLQLSTVEVATQLSMRNFELFRNIEPTEYIDDLFKLRSKTSCANLKRFEEVINQETFWVASEILRETNQLKRMKIIKHFIKIALHCRECKNFNSMFAIISGLNLAPVARLRTTWEKLPNKYEKLFQDLQDLFDPSRNMAKYRNVLNSQNLQPPIIPLFPVIKKDLTFLHEGNDSKVDGLVNFEKLRMIAKEIRHVGRMASVNMDPALMFRTRKKKWRSLGSLSQGSTNATVLDVAQTGGHKKRVRRSSFLNAKKLYEDAQMARKVKQYLSNLELEMDEESLQTLSLQCEPATNT
In vitro GEF activity on Ras: unable to demonstrate significant activation
